This is an account of results in patent publication US20180250395A1 (Janssen / Centocor, published 2018).

Assay [1] addresses T1, Cyno CD47 ECD protein, His-tagged, monomer (cyno).
T1 construct: extracellular domain; also called cynomolgus CD47
The assay is described as follows: ProteOn SPR; mAb captured, ECD monomer as analyte.

Assay [2] has as its target T2, recombinant human CD47 extracellular domain (ECD), His-tagged, monomer (human, UniProt Q08722 19-141).
T2 construct: C-terminal 6xHis tag; monomeric fraction from Superdex 200; also called human CD47 ECD; CD47-ECD monomer
The assay is described as follows: ProteOn SPR; mAb captured, ECD monomer as analyte.

Assay [3] concerns the target T3, recombinant human CD47 extracellular domain (ECD), His-tagged, dimer (human, UniProt Q08722 19-141).
T3 construct: Dimeric fraction of the same His-tagged ECD; also called His-tagged CD47-ECD dimer protein
Kind of assay: MSD; CD47-ECD dimer binding to captured SIRP alpha-Fc, mAb 10 µg/ml.

Assay [4] addresses T1, Cyno CD47 ECD protein, His-tagged, …. Kind of assay: ProteOn SPR; cyno KD / human KD.

B1: C47B213 (antibody, V domains shown)
VH: EVQLVQSGAEVKKPGESLKISCKGSGYSFDDSWIGWVRQMPGKGLEWMGIIYPGDSDTRYSPSFQGQVTISADKSISTAYLQWSSLKASDTAVYYCARVGRFASHQLDYWGQGTLVTVSS
VL: EIVLTQSPATLSLSPGERATLSCRASQSVNKALAWYQQKPGQAPRLLIYGASNRATGIPARFSGSGSGTDFTLTISSLEPEDFAVYYCQQGKGWPFTFGQGTKVEIK
notes: human IgG2sigma/kappa
Broadly, the Kd is a measure of binding affinity in units of concentration. Regarding B1, the equilibrium dissociation constant (Kd) worked out at 4.25 nM in assay [1] and 2.33 nM in assay [2]. Also, in assay [3], the “% SIRP alpha Inhibition” value was determined as 71.6%. Also, the “KD Ratio Cyno/Human” value in assay [4] is 1.8.

B2: C47B219 (antibody, V domains shown)
VH: EVQLVQSGAEVKKPGESLKISCKGSGYSFTDSWIGWVRQMPGKGLEWMGIIYPGDSDTRYSPSFQGQVTISADKSISTAYLQWSSLKASDTAVYYCARVGRFASHQLDYWGQGTLVTVSS
VL: EIVLTQSPATLSLSPGERATLSCRASQSVGSRLAWYQQKPGQAPRLLIYWASTRATGIPARFSGSGSGTDFTLTISSLEPEDFAVYYCQQGAYWPFTFGQGTKVEIK
notes: human IgG2sigma/kappa
Take B2: the dissociation constant (Kd) in assay [1] amounted to 1.66 nM; in assay [2] it was 2.58 nM. Besides, in assay [3], the “% SIRP alpha Inhibition” value was found to be 99.4%. Further, the “KD Ratio Cyno/Human” value in assay [4] was 0.6.

B3: C47B223 (antibody, V domains shown)
VH: EVQLVQSGAEVKKPGESLKISCKGSGYSFTDYWIGWVRQMPGKGLEWMGIIYPGDSDTRYSPSFQGQVTISADKSISTAYLQWSSLKASDTAVYYCARVGRFASHQLDYWGQGTLVTVSS
VL: EIVLTQSPATLSLSPGERATLSCRASQSVGSRLAWYQQKPGQAPRLLIYWASTRATGIPARFSGSGSGTDFTLTISSLEPEDFAVYYCQQGAYWPFTFGQGTKVEIK
notes: human IgG2sigma/kappa
Regarding B3, the Kd in assay [1] was 0.807 nM; in assay [2], 1.14 nM. Also, the “% SIRP alpha Inhibition” value in assay [3] came to 100%. Also, the “KD Ratio Cyno/Human” value in assay [4] is 0.7.

B4: C47B228 (antibody, V domains shown)
VH: EVQLVQSGAEVKKPGESLKISCKGSGYSFDDYWIGWVRQMPGKGLEWMGIIYPGDSDTRYSPSFQGQVTISADKSISTAYLQWSSLKASDTAVYYCARVGRFASHQLDYWGQGTLVTVSS
VL: EIVLTQSPATLSLSPGERATLSCRASQSVSNRQAWYQQKPGQAPRLLIHSASNRATGIPARFSGSGSGTDFTLTISSLEPEDFAVYYCQQGRSWPFTFGQGTKVEIK
notes: human IgG2sigma/kappa
Regarding B4, the dissociation constant Kd in assay [1] came out at 2.53 nM; in assay [2] it was 2.69 nM. Further, in assay [3], the “% SIRP alpha Inhibition” value came out at 99.3%. Further, the “KD Ratio Cyno/Human” value in assay [4] is 0.9.

B5: C47B220 (antibody, V domains shown)
VH: EVQLVQSGAEVKKPGESLKISCKGSGYSFTDSWIGWVRQMPGKGLEWMGIIYPGDSDTRYSPSFQGQVTISADKSISTAYLQWSSLKASDTAVYYCARVGRFASHQLDYWGQGTLVTVSS
VL: EIVLTQSPATLSLSPGERATLSCRASQSVSNRQAWYQQKPGQAPRLLIHSASNRATGIPARFSGSGSGTDFTLTISSLEPEDFAVYYCQQGRSWPFTFGQGTKVEIK
notes: human IgG2sigma/kappa
Take B5: the Kd is 3.74 nM in assay [1] and 4.3 nM in assay [2]. Also, the “% SIRP alpha Inhibition” value in assay [3] is 98.6%. For the same molecule, the “KD Ratio Cyno/Human” value in assay [4] was 0.9.

B6: C47B227 (antibody, V domains shown)
VH: EVQLVQSGAEVKKPGESLKISCKGSGYSFDDYWIGWVRQMPGKGLEWMGIIYPGDSDTRYSPSFQGQVTISADKSISTAYLQWSSLKASDTAVYYCARVGRFASHQLDYWGQGTLVTVSS
VL: EIVLTQSPATLSLSPGERATLSCRASQSVGSRLAWYQQKPGQAPRLLIYWASTRATGIPARFSGSGSGTDFTLTISSLEPEDFAVYYCQQGAYWPFTFGQGTKVEIK
notes: human IgG2sigma/kappa
As for B6, the equilibrium dissociation constant (Kd) amounted to 0.574 nM in assay [1] and 0.902 nM in assay [2]. For the same molecule, the “% SIRP alpha Inhibition” value in assay [3] worked out at 100%. Besides, the “KD Ratio Cyno/Human” value in assay [4] was 0.6.

B7: C47B221 (antibody, V domains shown)
VH: EVQLVQSGAEVKKPGESLKISCKGSGYSFTDYWIGWVRQMPGKGLEWMGIIYPGDSDTRYSPSFQGQVTISADKSISTAYLQWSSLKASDTAVYYCARVGRFASHQLDYWGQGTLVTVSS
VL: EIVLTQSPATLSLSPGERATLSCRASQSVNKALAWYQQKPGQAPRLLIYGASNRATGIPARFSGSGSGTDFTLTISSLEPEDFAVYYCQQGKGWPFTFGQGTKVEIK
notes: human IgG2sigma/kappa
As for B7, the dissociation constant (Kd) in assay [1] is 4.5 nM; in assay [2], 5.21 nM. The “% SIRP alpha Inhibition” value in assay [3] came out at 95%. The “KD Ratio Cyno/Human” value in assay [4] was 0.9.

B8: C47B215 (antibody, V domains shown)
VH: EVQLVQSGAEVKKPGESLKISCKGSGYSFDDSWIGWVRQMPGKGLEWMGIIYPGDSDTRYSPSFQGQVTISADKSISTAYLQWSSLKASDTAVYYCARVGRFASHQLDYWGQGTLVTVSS
VL: EIVLTQSPATLSLSPGERATLSCRASQSVGSRLAWYQQKPGQAPRLLIYWASTRATGIPARFSGSGSGTDFTLTISSLEPEDFAVYYCQQGAYWPFTFGQGTKVEIK
notes: human IgG2sigma/kappa
As to B8, the equilibrium dissociation constant (Kd) in assay [1] was 1.44 nM; in assay [2], 2.05 nM. Besides, the “% SIRP alpha Inhibition” value in assay [3] came to 99.6%. Further, the “KD Ratio Cyno/Human” value in assay [4] stood at 0.7.

B9: C47B214 (antibody, V domains shown)
VH: EVQLVQSGAEVKKPGESLKISCKGSGYSFDDSWIGWVRQMPGKGLEWMGIIYPGDSDTRYSPSFQGQVTISADKSISTAYLQWSSLKASDTAVYYCARVGRFASHQLDYWGQGTLVTVSS
VL: EIVLTQSPATLSLSPGERATLSCRASQSVNNRLAWYQQKPGQAPRLLIHWASTRAIGIPARFSGSGSGTDFTLTISSLEPEDFAVYYCQQGASWPFTFGQGTKVEIK
notes: human IgG2sigma/kappa
On to B9, for which the dissociation constant Kd in assay [1] came to 1.4 nM; in assay [2], 2.3 nM. In addition, the “% SIRP alpha Inhibition” value in assay [3] is 99.7%. Besides, the “KD Ratio Cyno/Human” value in assay [4] was 0.6.

B10: C47B222 (human IgG2sigma) (antibody, V domains shown)
VH: EVQLVQSGAEVKKPGESLKISCKGSGYSFTDYWIGWVRQMPGKGLEWMGIIYPGDSDTRYSPSFQGQVTISADKSISTAYLQWSSLKASDTAVYYCARVGRFASHQLDYWGQGTLVTVSS
VL: EIVLTQSPATLSLSPGERATLSCRASQSVNNRLAWYQQKPGQAPRLLIHWASTRAIGIPARFSGSGSGTDFTLTISSLEPEDFAVYYCQQGASWPFTFGQGTKVEIK
notes: human IgG2sigma/kappa; also called IgG2 Fc-silent C47B222
Consider B10, for which the Kd worked out at 0.842 nM in assay [1] and 1.12 nM in assay [2]. Further, the “% SIRP alpha Inhibition” value in assay [3] came out at 99.9%. Also, the “KD Ratio Cyno/Human” value in assay [4] worked out at 0.8.

B11: C47B216 (antibody, V domains shown)
VH: EVQLVQSGAEVKKPGESLKISCKGSGYSFDDSWIGWVRQMPGKGLEWMGIIYPGDSDTRYSPSFQGQVTISADKSISTAYLQWSSLKASDTAVYYCARVGRFASHQLDYWGQGTLVTVSS
VL: EIVLTQSPATLSLSPGERATLSCRASQSVSNRQAWYQQKPGQAPRLLIHSASNRATGIPARFSGSGSGTDFTLTISSLEPEDFAVYYCQQGRSWPFTFGQGTKVEIK
notes: human IgG2sigma/kappa
Regarding B11, the dissociation constant Kd in assay [1] came out at 2.74 nM; in assay [2] it was 3.35 nM. Moreover, in assay [3], the “% SIRP alpha Inhibition” value came out at 99.8%. Further, in assay [4], the “KD Ratio Cyno/Human” value is 0.8.

B12: C47B217 (antibody, V domains shown)
VH: EVQLVQSGAEVKKPGESLKISCKGSGYSFTDSWIGWVRQMPGKGLEWMGIIYPGDSDTRYSPSFQGQVTISADKSISTAYLQWSSLKASDTAVYYCARVGRFASHQLDYWGQGTLVTVSS
VL: EIVLTQSPATLSLSPGERATLSCRASQSVNKALAWYQQKPGQAPRLLIYGASNRATGIPARFSGSGSGTDFTLTISSLEPEDFAVYYCQQGKGWPFTFGQGTKVEIK
notes: human IgG2sigma/kappa
Take B12: the Kd in assay [1] came out at 5.56 nM; in assay [2], 7.67 nM. For the same molecule, the “% SIRP alpha Inhibition” value in assay [3] amounted to 83.1%. The “KD Ratio Cyno/Human” value in assay [4] worked out at 0.7.

B13: C47B224 (antibody, V domains shown)
VH: EVQLVQSGAEVKKPGESLKISCKGSGYSFTDYWIGWVRQMPGKGLEWMGIIYPGDSDTRYSPSFQGQVTISADKSISTAYLQWSSLKASDTAVYYCARVGRFASHQLDYWGQGTLVTVSS
VL: EIVLTQSPATLSLSPGERATLSCRASQSVSNRQAWYQQKPGQAPRLLIHSASNRATGIPARFSGSGSGTDFTLTISSLEPEDFAVYYCQQGRSWPFTFGQGTKVEIK
notes: human IgG2sigma/kappa
Consider B13, for which the results for the dissociation constant (Kd) in assay [1] and in assay [2] were 2.19 nM and 2.46 nM, respectively. In addition, the “% SIRP alpha Inhibition” value in assay [3] was found to be 99.7%. Moreover, the “KD Ratio Cyno/Human” value in assay [4] turned out to be 0.9.

B14: C47B218 (antibody, V domains shown)
VH: EVQLVQSGAEVKKPGESLKISCKGSGYSFTDSWIGWVRQMPGKGLEWMGIIYPGDSDTRYSPSFQGQVTISADKSISTAYLQWSSLKASDTAVYYCARVGRFASHQLDYWGQGTLVTVSS
VL: EIVLTQSPATLSLSPGERATLSCRASQSVNNRLAWYQQKPGQAPRLLIHWASTRAIGIPARFSGSGSGTDFTLTISSLEPEDFAVYYCQQGASWPFTFGQGTKVEIK
notes: human IgG2sigma/kappa
As to B14, the equilibrium dissociation constant (Kd) in assay [1] came out at 1.58 nM; in assay [2], 2.56 nM. Further, the “% SIRP alpha Inhibition” value in assay [3] was determined as 98.9%. Moreover, in assay [4], the “KD Ratio Cyno/Human” value stood at 0.6.

B15: C47B225 (antibody, V domains shown)
VH: EVQLVQSGAEVKKPGESLKISCKGSGYSFDDYWIGWVRQMPGKGLEWMGIIYPGDSDTRYSPSFQGQVTISADKSISTAYLQWSSLKASDTAVYYCARVGRFASHQLDYWGQGTLVTVSS
VL: EIVLTQSPATLSLSPGERATLSCRASQSVNKALAWYQQKPGQAPRLLIYGASNRATGIPARFSGSGSGTDFTLTISSLEPEDFAVYYCQQGKGWPFTFGQGTKVEIK
notes: human IgG2sigma/kappa
Consider B15, for which the dissociation constant Kd in assay [1] is 3.76 nM; in assay [2], 3.31 nM. For the same molecule, the “% SIRP alpha Inhibition” value in assay [3] stood at 96.3%. For the same molecule, in assay [4], the “KD Ratio Cyno/Human” value turned out to be 1.1.

B16: C47B226 (antibody, V domains shown)
VH: EVQLVQSGAEVKKPGESLKISCKGSGYSFDDYWIGWVRQMPGKGLEWMGIIYPGDSDTRYSPSFQGQVTISADKSISTAYLQWSSLKASDTAVYYCARVGRFASHQLDYWGQGTLVTVSS
VL: EIVLTQSPATLSLSPGERATLSCRASQSVNNRLAWYQQKPGQAPRLLIHWASTRAIGIPARFSGSGSGTDFTLTISSLEPEDFAVYYCQQGASWPFTFGQGTKVEIK
notes: human IgG2sigma/kappa; also called C27B226
For B16, the Kd worked out at 0.543 nM in assay [1] and 0.872 nM in assay [2]. For the same molecule, in assay [3], the “% SIRP alpha Inhibition” value is 100%. Also, in assay [4], the “KD Ratio Cyno/Human” value turned out to be 0.6.
